B1: Hammerhead Ribozyme (parent)
chain: ACCGGAUGUGCUUUCCGGUCUGAUGAGUCCGUGAGGACGAAACAG

Variants of: B1
Assay: self-cleavage, relative activity (ratio to wild type); higher = more cleavage; co-transcriptional

| Variant | self-cleavage |
| --- | --- |
| C2A G33A | 0.958 |
| C2A G33U | 0.858 |
| C2A G33C | 0.888 |
| C2A U28A | 0.394 |
| C2A U28G | 0.308 |
| C2A U28C | 0.417 |
| C2G A34U | 0.347 |
| C2G A34C | 0.352 |
| C2G A34G | 0.279 |
| C2U A26U | 0.89 |
| C2U A26C | 0.514 |
| C2U A26G | 0.34 |
| C2U G35C | 0.647 |
| C2U G35A | 0.871 |
| C2U G35U | 0.757 |
| C2G G39U | 0.268 |
| C2G G39A | 0.342 |
| C2G G39C | 0.289 |
| C2U G25C | 0.345 |
| C2U G25U | 0.28 |
| C2U G25A | 0.386 |

| Variant | self-cleavage |
| --- | --- |
| C3A A23U | 0.28 |
| C3A A23C | 0.352 |
| C3A A23G | 0.296 |
| C2U U28C | 0.79 |
| C2U U28A | 0.445 |
| C2U U28G | 0.7 |
| C2U C15A | 0.397 |
| C2U C15U | 0.76 |
| C2U C15G | 0.385 |
| C2G A26G | 0.292 |
| C2G A26U | 0.315 |
| C2G A26C | 0.341 |
| C2G U24C | 0.383 |
| C2G U24A | 0.476 |
| C2G U24G | 0.356 |
| C2U U14G | 1.11 |
| C2U U14A | 0.8 |
| C2U U14C | 0.474 |
| C2U U9A | 1.24 |
| C2U U9G | 0.659 |
| C2U U9C | 0.983 |

| Variant | self-cleavage |
| --- | --- |
| C2G U7G | 0.364 |
| C2G U7C | 0.373 |
| C2G U7A | 0.364 |
| C2U G18A | 1.19 |
| C2U G18U | 1.16 |
| C2U G18C | 0.869 |
| C2G | 0.455 |
| C2U | 1.17 |
| C2G A40G | 0.266 |
| C2G A40U | 0.287 |
| C2G A40C | 0.352 |
| C2U G17C | 0.375 |
| C2U G17U | 0.409 |
| C2U G17A | 0.392 |
| C2U G45U | 0.835 |
| C2U G45C | 0.868 |
| C2U G45A | 0.873 |
| C2G C3G | 0.353 |
| C2G C3U | 0.36 |
| C2G C3A | 0.283 |
| C2G G4A | 0.322 |

| Variant | self-cleavage |
| --- | --- |
| C2G G4U | 0.219 |
| C2G G4C | 0.233 |
| C2G C43A | 0.328 |
| C2G C43G | 0.308 |
| C2G C43U | 0.305 |
| C2G C38G | 0.317 |
| C2G C38A | 0.336 |
| C2G C38U | 0.338 |
| C2A U21G | 0.291 |
| C2A U21A | 0.351 |
| C2A U21C | 0.402 |
| C2A U13G | 0.86 |
| C2A U13A | 1.08 |
| C2A U13C | 1.05 |
| C2A U19A | 0.308 |
| C2A U19C | 0.38 |
| C2A U19G | 0.381 |
| C2U G22C | 0.323 |
| C2U G22A | 0.341 |
| C2U G22U | 0.376 |
